One series deals with T1, SpNOX (Streptococcus pneumoniae, UniProt Q8CZ28).
T1 construct: gene spr0531; full-length membrane protein, codon-optimized synthetic gene, N-terminal His tag (pQLink N), E. coli BL21(DE3) pLysS, purified in MNG detergent; bis-His heme ligands H69, H83, H129, H142
T1 sequence (Q8CZ28 1-400): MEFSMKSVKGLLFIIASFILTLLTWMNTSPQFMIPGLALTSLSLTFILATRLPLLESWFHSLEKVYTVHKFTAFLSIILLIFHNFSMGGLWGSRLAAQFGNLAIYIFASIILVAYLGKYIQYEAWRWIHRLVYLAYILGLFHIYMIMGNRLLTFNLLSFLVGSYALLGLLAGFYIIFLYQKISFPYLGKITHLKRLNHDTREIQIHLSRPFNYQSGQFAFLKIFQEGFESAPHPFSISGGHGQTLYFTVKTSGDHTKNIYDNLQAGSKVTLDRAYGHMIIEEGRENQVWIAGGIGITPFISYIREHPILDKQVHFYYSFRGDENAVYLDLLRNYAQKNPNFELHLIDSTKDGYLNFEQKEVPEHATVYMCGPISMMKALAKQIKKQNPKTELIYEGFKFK
Description: cytochrome c reduction, absorbance at […] nm. It is filed as biochemical. The note with it: read-out: 50% inhibitory concentration.

In series [1] the test system is Cc1cc2nc3c(=O)[nH]c(=O)nc-3n(C[C@H](O)[C@H](O)[C@H](O)COP(=O)(O)OP(=O)(O)OC[C@H]3O[C@@H](n4cnc5c(N)ncnc54)[C@H](O)[C@@H]3O)c2cc1C. Description: purified protein. The note with it: 200 µM NADPH; cytochrome c 100 µM; Figure 3E; varied: cofactor. Format: biochemical, Streptococcus pneumoniae.
The subject of series [2] is NC(=O)C1=CN([C@@H]2O[C@H](COP(=O)(O)OP(=O)(O)OC[C@H]3O[C@@H](n4cnc5c(N)ncnc54)[C@H](OP(=O)(O)O)[C@@H]3O)[C@@H](O)[C@H]2O)C=CC1. Description: purified protein. Format: biochemical, Streptococcus pneumoniae. The settings on record: 10 µM FAD; cytochrome c 100 µM; Figure 3D.

pIC50: −log10 of the molar value.

The record followed here is publication PMC5676040, “The NOX Family of Proteins Is Also Present in Bacteria” (mBio, 2017).

The Km is the concentration of substrate that gives half-maximal velocity.

`c1ccc2c(c1)[I+]c1ccccc1-2` [DPI]: the pIC50 on SpNOX was approximately 5.30. Consider SpNOX (Streptococcus pneumoniae R6), for which the Michaelis-Menten constant (Km) is on record as 0.13 µM in series [1] and 8 µM in series [2].
